Test results from article PMC5309861, “Mechanistic insight into the substrate specificity of 1,2-β-oligoglucan phosphorylase from Lachnoclostridium phytofermentans” (Scientific Reports, 2017).

Substrate: O=P(O)(O)O[C@H]1O[C@H](CO)[C@@H](O)[C@H](O)[C@H]1O
Experiment: phosphate release (molybdate colorimetry), Michaelis-Menten fit
Type: biochemical, Lachnoclostridium phytofermentans
Settings: synthetic reaction, donor, pH 7.0, 30 °C, acceptor not stated
Source text: phosphate release (molybdate colorimetry), Michaelis-Menten fit on LpSOGP

B1: LpSOGP (Lachnoclostridium phytofermentans ISDg) (protein)
chain: MILKTLSAPIILENSNSTFTFLPGGDNFEWIHESIMINAFQGNTLDGSTNNLYLRIYKDNSLAFYPLIGMNSKSTIKSGTSTLIFEGTAEDISYTVTFRLTPYGIWFWDISLSGNCNKADIIYSQDIGVGTKGSVNSNELYLAQYLGHSIFQGDYGYVICSRQNMAQGDLFPYLQQGSLGIRSIAYSTDGTQFFGLSYKKTNIPEALYGDLPSKNKQYELAHTALQTEAFSLSGTKQFSFYGICKTNHPEVIREIEYIQELEKAYAYHESGEILPVNVPTLQNIGAPYASSRWDAKQVEHYFPKRLLEEKEEEALLSFFTPEKSHVVLQDKELTTERPHGHILMTNFDVTKVPQGVVSSTNYMYGAFNCQFVVGNTTYNKLLSNHRGLLNIQKDSGQRIFIKIGDCYRQLTLPAAYEMNVAGSTWYYQLDEDVLIITSFAMYNRPEIVLKVQSLGHKKYDFIVTHQLTVGPNEYENEIKLTREGNILQLSPTDPVVTNHFYPELSFRMRIPEDCTLSDDSIFFHNNTTINPSLLSIEILQKSSFDIVMQGFDTGNVIPFLDQYDYKEQLEAYRIYYDQLVCNFKLSAPDKIPLSAEKLNAIIHWYAHDALIHFASPHGLEQSGGAAWGTRDVCQGPIEFFLTTGHFDLVRHILITLYSHQIEGGFEWPQWFMFDHYPIHQEDCHGDVVFWPLKAISDYIQATGDTSILNELVDYRTAKDALPTNQPETILIHIKRAVTTIKNRYLSGTALISYAGGDWDDTLQPANSELKENLVSAWTQALAEQTLELLCSAIKGIDHDFSKELSHMANDIRTSFYQYLIKDGVIAGFLYRESEEHMKYMLHPDDTESSIHYRLLPLTRSIIAQLADFKLATRNLEIIDEHLACPDGVRLMDHPASYSGGISKIFLRAEQAANVGREISLQYVHAHIRYIEALATMGLSKKAWDALMRINPILLTDYVPNALTRQSNVYFSSSEGCFDDRYEYAKNFDKLRTGDINVKGGWRLYSSGPGIYIRRIIADLLGIRFGHNVIHIDPVVTKELDGVTLQFTCFGKTVFFTYHVDDTMDKHICVKSNNNILPGDNLNNIYRDGGIQIAKDVFLSAAMSDNNFHIYVKN
notes: full length with C-terminal His6 tag (pET28a, kept); E. coli BL21(DE3); theoretical mass 169640 Da as printed; monomer; structure residues 1-1113
**Q.** Which Km does the source give for B1 here?
**A.** 2600 ± 300 µM

**Q.** And the kcat?
**A.** 28 ± 1 s⁻¹

**Q.** What about the kcat/Km of the same protein?
**A.** 11000 ± 1000 M⁻¹ s⁻¹
